Test [1] addresses Gp3 of Streptomyces phage φBT1 (recombination directionality factor, excisionase) (Streptomyces phage φBT1). As to the kind of experiment: cross-linking; purified proteins, alone or mixed, incubated with or without dimethyl suberimidate (DMS), analysed by SDS-PAGE.
In test [2] the target is Streptomyces phage φBT1 integrase (Streptomyces phage φBT1).
The target is the same in test [3]. Description: cross-linking; purified proteins, alone or mixed, incubated with or without dimethyl suberimidate (DMS), analysed by SDS-PAGE.

Our source for the stoichiometry N, quantitative in vitro recombination (blue-white screen, white colonies): excision between attL and attR with integrase and Gp3 and quantitative in vitro recombination (blue-white screen, white colonies): integration between attB and attP in the presence of Gp3 (more than 90% without Gp3) values is article PMC3836970.

By stoichiometry N is commonly meant a count of units in the complex or per binding partner. Regarding “Gp3 of Streptomyces phage φBT1 (recombination directionality factor, excisionase) (natural protein)”, the stoichiometry N in test [1] amounted to 2. For the same substance, in test [2], the quantitative in vitro recombination (blue-white screen, white colonies): excision between attL and attR with integrase and Gp3 amounted to 89%; the quantitative in vitro recombination (blue-white screen, white colonies): integration between attB and attP in the presence of Gp3 (more than 90% without Gp3) was found to be 2%.
In test [3], “Streptomyces phage φBT1 integrase (enzyme)” had a stoichiometry N of 2.
